The results in this text go back to PMC3025350, “Regulation and Rate Enhancement during Transcription-Coupled DNA Repair”.

Details in all cases: protein: recombinant; tags: N-terminal His; chain copies: 2; label: 32P; blunt
One data set deals with T1, UvrA WT (Escherichia coli, UniProt P0A698 1-940).
T1 sequence: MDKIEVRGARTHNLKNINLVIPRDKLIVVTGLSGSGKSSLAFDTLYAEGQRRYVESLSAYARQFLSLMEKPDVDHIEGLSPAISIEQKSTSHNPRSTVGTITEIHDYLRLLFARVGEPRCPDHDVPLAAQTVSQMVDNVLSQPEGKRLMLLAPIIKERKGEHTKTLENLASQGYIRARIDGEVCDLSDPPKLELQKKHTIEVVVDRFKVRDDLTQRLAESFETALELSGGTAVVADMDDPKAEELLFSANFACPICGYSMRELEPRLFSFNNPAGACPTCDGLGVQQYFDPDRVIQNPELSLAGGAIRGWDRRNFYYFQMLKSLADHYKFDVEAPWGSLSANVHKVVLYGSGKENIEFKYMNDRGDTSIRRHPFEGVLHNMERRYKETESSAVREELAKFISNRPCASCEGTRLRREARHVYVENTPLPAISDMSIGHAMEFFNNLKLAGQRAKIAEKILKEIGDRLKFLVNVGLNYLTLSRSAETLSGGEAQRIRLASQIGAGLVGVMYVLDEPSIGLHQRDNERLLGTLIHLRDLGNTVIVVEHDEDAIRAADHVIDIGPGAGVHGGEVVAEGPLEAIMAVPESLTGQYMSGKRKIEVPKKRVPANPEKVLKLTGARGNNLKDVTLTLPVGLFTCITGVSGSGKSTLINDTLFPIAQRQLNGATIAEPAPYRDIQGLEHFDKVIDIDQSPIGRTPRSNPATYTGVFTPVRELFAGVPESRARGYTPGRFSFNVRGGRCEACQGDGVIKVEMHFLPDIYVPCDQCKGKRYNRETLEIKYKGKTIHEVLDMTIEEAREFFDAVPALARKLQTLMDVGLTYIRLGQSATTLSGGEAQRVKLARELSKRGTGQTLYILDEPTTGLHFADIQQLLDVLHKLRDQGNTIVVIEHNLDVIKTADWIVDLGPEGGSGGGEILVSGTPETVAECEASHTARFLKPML
The experiment in a line: EMSA; 2 mM ATP; EMSA, 1 nM 32P-labeled 50 bp duplex, 2 mM ATP, 20 min at 37°C; buffer, salt and pH not given in the material.

For data set [1], the target named is T2, UvrA R712A R722A R724A R730A (Escherichia coli, UniProt P0A698 1-940, R712A;R722A;R724A;R730A).
T2 sequence: T1 sequence with R712A, R722A, R724A, R730A
The experiment in a line: EMSA; 2 mM ATP; no binding detected at 800 nM UvrA; EMSA, 1 nM 32P-labeled 50 bp duplex, 2 mM ATP, 20 min at 37°C; buffer, salt and pH not given in the material. On the technique in general: Mobility shift assays separate free from complexed probe on a gel.

The next data set addresses T3, UvrA G502D (Escherichia coli, UniProt P0A698 1-940, G502D).
T3 sequence: T1 sequence with G502D
In words: EMSA; 2 mM ATP; binding detected at <300 nM UvrA; EMSA, 1 nM 32P-labeled 50 bp duplex, 2 mM ATP, 20 min at 37°C; buffer, salt and pH not given in the material.

The target in a further data set is T4, UvrA K37A (Escherichia coli, UniProt P0A698 1-940, K37A).
T4 sequence: T1 sequence with K37A
The description is as above.

Substitutions are numbered along the chain they refer to.

B1: 50 bp duplex with single FldT adduct (dsDNA)
DNA 1: CTAGGATCGGATAGCGCATGACAGTGACTGGATCGACAGCGTCGTATGAG
DNA 2: CTCATACGACGCTGTCGATCCAGTCACTGTCATGCGCTATCCGATCCTAG
modifications: fluorescein-dT (FldT) at position 29 of strand 1
Take B1: the Kd in the data set with UvrA WT was determined as 5.6 ± 1 nM. Further, the binding result in data set [1] is listed as “no binding”; with UvrA G502D, “binds”; with UvrA K37A, “binds”.

The Kd is the free concentration of one partner at which half of the binding sites on the other are occupied at equilibrium, for simple one-to-one binding.
